Reference: patent publication US20230181770A1, “COMPOSITIONS AND METHODS OF TARGETING AND IMAGING AGED MICROGLIA WITH Aß PEPTIDE AMINO ACID RESIDUES FOR V-DOMAIN BINDING OF RAGE” (Neurosn, Inc., priority 2018, published 2023)

Target: T1, RAGE receptors (Mus musculus, UniProt Q62151)
T1 construct: from tissue; host or cells: mouse brain (APPSWE Model 2789 and C57BL/6 mice), after tail vein injection
Test: Brain autoradiography (AR) binding localization after tail vein injection in AD and normal mice
Format: in vivo
Conditions: 50 μCi per tail vein at day 0, sacrificed day 3
From the text: Four APPSWE Model 2789 mice (AD) and 4 C57BL/6 mice (normal) receive an injection of 50 μCi of Sn-IBD-Aβ(16-23) per tail vein at day 0.
Additionally, four APPSWE Model 2789 mice (AD) and 4 C57BL/6 mice (normal) receive an injection of 50 μCi of Sn-IBD-K-Aβ(23-17) per tail vein at day 0.
All the animals are sacrificed on day 3 post Sn-Aβ-AA injection and brains preserved and autoradiography (AR) binding localization in AD-specific areas mapped.
Findings—Histopathological comparison and autoradiography dosimetry are measured in each mouse brain in comparative anatomic regions.

T1 sequence (Q62151 23-402): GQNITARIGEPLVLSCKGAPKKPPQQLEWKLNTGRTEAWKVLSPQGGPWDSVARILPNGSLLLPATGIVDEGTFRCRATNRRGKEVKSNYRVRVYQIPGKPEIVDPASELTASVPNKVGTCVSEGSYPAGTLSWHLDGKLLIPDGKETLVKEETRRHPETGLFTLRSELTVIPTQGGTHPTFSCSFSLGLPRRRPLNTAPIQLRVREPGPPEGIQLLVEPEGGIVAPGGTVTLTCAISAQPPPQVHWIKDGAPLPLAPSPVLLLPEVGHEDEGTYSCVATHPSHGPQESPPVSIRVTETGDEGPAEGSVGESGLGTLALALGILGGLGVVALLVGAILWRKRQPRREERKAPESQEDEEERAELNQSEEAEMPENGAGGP

AR distribution of RAGE binding in brain (RAGE expressing APPSWE Model 2789 mice (AD)): increase in RAGE binding
AR distribution of RAGE binding in cortical and hippocampal areas (normal C57BL/6 mice): minimal
Substance: Sn-IBD-Aβ(16-23) (KLVFFAED; Amyloid-beta protein 42 Sn-IBD conjugate; UniProt P05067 687-694, looked up, fragment)
